Substitutions are numbered along the chain they refer to. Numbers in names are those of the source. Where “and” joins values, the source holds several entries; their conditions need not be identical. Equal entries are not always repeated.
Key:
[1] = target: T1, membrane-bound full-length human CD89 on HEK293F cells (human, UniProt P24071 22-287); experiment: FACS, antibody before non-aggregated serum IgA on HEK293F-huCD89; IgA detected
T1 construct: 2 or transient transfectants; also called membrane human CD89; human FcaRI

[2] = target: T1, membrane-bound full-length human CD89 …; experiment: FACS, antibody before secretory IgA on HEK293F-huCD89; IgA detected
[3] = target: T1, membrane-bound full-length human CD89 …; experiment: FACS, antibody before heat-aggregated serum IgA on HEK293F-huCD89; IgA detected
[4] = target: T2, recombinant C-terminal polyhistidine-tagged human (extracellular) CD89 (Sino Biological) (human, UniProt P24071 22-227); experiment: ELISA, coated rhuCD89
T2 construct: extracellular domain; bought protein; also called rhuCD89; soluble monomeric rhuCD89

[5] = target: T1, membrane-bound full-length human CD89 …; experiment: FACS HEK293F-huCD89
Description: After extensive washing in PBS/BSA/NaN₃, cells were subsequently incubated with 1:200 diluted PE-conjugated goat anti-human IgG Fcy-specific antibodies (Jackson ImmunoResearch) for 30 minutes at 4° C. After extensive washing in PBS/BSA/NaN₃, cells were fixed in 2% formaldehyde in PBS/BSA/NaN₃ for 30 minutes at 4° C.

[6] = target: T2, recombinant C-terminal …; experiment: ELISA on plate-coated rhuCD89; titrated supernatant; HRP goat anti-human IgG Fc detection, OD 450 nm [VL3]
[7] = target: T1, membrane-bound full-length human CD89 …; experiment: FACS HEK293F-huCD89; inhibition of serum human IgA binding
Description: (§1) After extensive washing in PBS/BSA/NaN₃, 1:200 diluted PE-conjugated streptavidin (Jackson ImmunoResearch) was added, and incubated for 30 minutes at 4° C. After extensive washing in PBS/BSA/NaN₃, cells were fixed in 4% formaldehyde in PBS/BSA/NaN₃ for 30 minutes at 4° C.

[8] = target: T1, membrane-bound full-length human CD89 …; experiment: FACS HEK293F-huCD89, purified Ab
Description: After extensive washing in PBS/BSA/NaN₃, cells were subsequently incubated with 1:200 diluted PE-conjugated goat anti-human IgG Fcγ-specific antibodies (Jackson ImmunoResearch) for 30 minutes at 4° C. After extensive washing in PBS/BSA/NaN₃, cells were fixed in 4% formaldehyde in PBS/BSA/NaN₃ for 30 minutes at 4° C.

[9] = target: T1, membrane-bound full-length human CD89 …; experiment: FACS HEK293F-huCD89; inhibition of secretory human IgA binding
Description: as §1

[10] = target: T2, recombinant C-terminal …; experiment: BLI (Octet RED96), biotinylated Ab on streptavidin tips, rhuCD89 analyte, 1:1 model
Description: Equilibrium dissociation constants (KD) were determined using a 1:1 Langmuir binding model in Octet® RED96 software (ForteBio).

[11] = target: T2, recombinant C-terminal …; experiment: ELISA, coated rhuCD89, purified Ab
Description: After extensive washing with PBS/0.05% Tween 20, plates were blocked with PBS/0.05% Tween 20/1% BSA (Roche) for 1 hour at RT. […] After extensive washing in PBS/0.05% Tween 20, binding of antibodies on rhuCD89 was determined with 1:5,000 diluted horseradish peroxidase (HRP)-conjugated goat anti-human IgG Fcγ-specific antibodies (Jackson ImmunoResearch) for 1 hour at RT, followed by a ready-to-use solution of TMB substrate (Invitrogen) for colorimetric detection. After adding 1 M HCL, binding (optical density) of antibodies on rhuCD89 was measured at wavelength of 450 nm (reference wavelength of 655 nm) using a microplate reader (Synergy HTX; BioTek).

[12] = target: T2, recombinant C-terminal …; experiment: ELISA on plate-coated rhuCD89; titrated supernatant; HRP goat anti-human IgG Fc detection, OD 450 nm [VL4]

B1: CD89/IgA blocking chimeric mouse/human IgG4/kappa anti-human CD89 antibody 30C7 (antibody)
heavy: not shown
light: DIVMSQSPSSLAVSAGEKVTMSCKSSQSLLNSRTRKNYLAWYQQKPGQSPKLLIYWASTRESGVPDRFTGSGSGTDFTLTISSVQAEDLAVYYCKQSYNLMYTFGGGTKLEIKRTVAAPSVFIFPPSDEQLKSGTASVVCLLNNFYPREAKVQWKVDNALQSGNSQESVTEQDSKDSTYSLSSTLTLSKADYEKHKVYACEVTHQGLSSPVTKSFNRGEC
notes: stabilized (S239P) human IgG4; also called chimeric 30C7
For B1, the “IC50 (read off the curve)” value [1] was about 0.9 µg/mL, the “IC50 (read off the curve)” value [2] was about 1 µg/mL and the “IC50 (read off the curve)” value [3] was about 0.8 µg/mL.

B2: CD89/IgA blocking chimeric mouse/human IgG4/kappa anti-human CD89 antibody 20B4 (antibody)
heavy: not shown
light: DILMTQSPSSMSVSLGDTVSITCHASQDISRNIGWLQQKPGKSFKGLIYHGTNLEDGVPSRFSGSGSGADYSLTISSLESEDFADYYCVQYAQFPRTFGGGTKLEIKRTVAAPSVFIFPPSDEQLKSGTASVVCLLNNFYPREAKVQWKVDNALQSGNSQESVTEQDSKDSTYSLSSTLTLSKADYEKHKVYACEVTHQGLSSPVTKSFNRGEC
notes: stabilized (S239P) human IgG4; also called chimeric 20B4
An EC50 [4] of 0.009 µg/mL and an EC50 [5] of 0.296 µg/mL were found for B2 in this work.

B3: CD89/IgA blocking chimeric mouse/human IgG4/kappa anti-human CD89 antibody 16D6 (antibody)
heavy: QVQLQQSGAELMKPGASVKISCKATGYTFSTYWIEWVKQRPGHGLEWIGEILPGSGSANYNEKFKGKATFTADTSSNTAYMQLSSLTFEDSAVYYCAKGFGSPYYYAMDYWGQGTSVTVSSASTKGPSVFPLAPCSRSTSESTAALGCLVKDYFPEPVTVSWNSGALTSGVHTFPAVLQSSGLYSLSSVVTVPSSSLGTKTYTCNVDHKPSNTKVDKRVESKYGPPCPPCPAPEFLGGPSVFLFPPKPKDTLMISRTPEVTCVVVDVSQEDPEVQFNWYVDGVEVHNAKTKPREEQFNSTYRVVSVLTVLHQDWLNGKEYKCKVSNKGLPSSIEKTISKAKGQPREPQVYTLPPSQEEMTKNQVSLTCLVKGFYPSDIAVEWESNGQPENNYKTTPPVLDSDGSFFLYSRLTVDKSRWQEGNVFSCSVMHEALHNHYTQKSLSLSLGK
light: EIVLTQSPALMAASPGEKVTITCSVSSSISSSNLHWYQQKSETSPKPWIYGTSKLASGVPVRFSGSGSGTSYSLTISNMEAEDAATYYCQQWSSFPLTFGGGTKLEIKRTVAAPSVFIFPPSDEQLKSGTASVVCLLNNFYPREAKVQWKVDNALQSGNSQESVTEQDSKDSTYSLSSTLTLSKADYEKHKVYACEVTHQGLSSPVTKSFNRGEC
notes: stabilized (S239P) human IgG4; also called chimeric 16D6
An EC50 [4] of 0.108 µg/mL and an EC50 [5] of 1.79 µg/mL were found for B3 in this work.

B4: CD89/IgA blocking chimeric mouse/human IgG4/kappa anti-human CD89 antibody 8F3 (antibody)
heavy: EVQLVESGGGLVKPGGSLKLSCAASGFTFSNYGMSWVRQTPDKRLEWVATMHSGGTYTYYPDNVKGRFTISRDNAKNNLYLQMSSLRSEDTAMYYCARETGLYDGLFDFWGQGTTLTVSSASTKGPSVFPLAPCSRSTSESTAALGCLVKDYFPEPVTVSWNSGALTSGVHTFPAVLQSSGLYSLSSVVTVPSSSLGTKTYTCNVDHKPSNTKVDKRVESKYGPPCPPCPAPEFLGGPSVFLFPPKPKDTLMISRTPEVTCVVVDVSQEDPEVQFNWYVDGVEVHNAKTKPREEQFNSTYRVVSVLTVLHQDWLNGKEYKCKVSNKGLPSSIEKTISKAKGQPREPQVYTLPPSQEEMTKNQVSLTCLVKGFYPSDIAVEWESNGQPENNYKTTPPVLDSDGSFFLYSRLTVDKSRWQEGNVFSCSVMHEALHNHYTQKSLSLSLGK
light: DVQITQSPSYLAASPGETITINCRASKTISKYLAWYQEKPGKTNMLLIYSGSTLQSGVPSRFSGSGSGTDFTLTISSLEPEDLAMYYCQQHDEYPWTFGGGTKLEIKRTVAAPSVFIFPPSDEQLKSGTASVVCLLNNFYPREAKVQWKVDNALQSGNSQESVTEQDSKDSTYSLSSTLTLSKADYEKHKVYACEVTHQGLSSPVTKSFNRGEC
notes: stabilized (S239P) human IgG4; also called chimeric 8F3
In the case of B4, the EC50 [4] is reported as 0.031 µg/mL, the “IC50 (read off the curve)” value [1] is reported as about 1 µg/mL and the “IC50 (read off the curve)” value [2] is reported as about 1 µg/mL. The “IC50 (read off the curve)” value [3] was about 1 µg/mL and the EC50 [5] was 1.32 µg/mL.

B5: humanized IgG4/kappa anti-human CD89 monoclonal antibody 10E7 version VH2VL3 (antibody)
heavy: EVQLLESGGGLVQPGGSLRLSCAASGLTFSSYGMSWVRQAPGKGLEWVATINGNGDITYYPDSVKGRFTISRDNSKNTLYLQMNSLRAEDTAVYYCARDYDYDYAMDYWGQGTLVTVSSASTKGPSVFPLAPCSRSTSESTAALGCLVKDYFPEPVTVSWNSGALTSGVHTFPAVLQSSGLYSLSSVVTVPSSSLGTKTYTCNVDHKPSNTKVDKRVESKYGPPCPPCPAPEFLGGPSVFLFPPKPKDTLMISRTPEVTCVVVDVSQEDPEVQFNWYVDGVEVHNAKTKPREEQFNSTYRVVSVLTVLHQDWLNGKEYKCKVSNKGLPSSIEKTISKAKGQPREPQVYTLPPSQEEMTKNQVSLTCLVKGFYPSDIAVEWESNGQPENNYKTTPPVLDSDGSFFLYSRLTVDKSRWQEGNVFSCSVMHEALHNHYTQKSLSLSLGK
light: DIQMTQSPSSLSASVGDRVTITCRASQDIINYLNWYQQKPGKAVKLLIYYTSRLHSGVPSRFSGSGSGTDYTLTISSLQPEDFATYYCQQGKTLPYTFGQGTKLEIKRTVAAPSVFIFPPSDEQLKSGTASVVCLLNNFYPREAKVQWKVDNALQSGNSQESVTEQDSKDSTYSLSSTLTLSKADYEKHKVYACEVTHQGLSSPVTKSFNRGEC
notes: tested as supernatant; signal peptide end derived as for m17
For B5, the “EC50 (read off the curve)” value [6] was about 0.04 µg/mL.

B6: 'CDR2 deamidation-repaired' humanized IgG4/kappa anti-human CD89 monoclonal antibody 10E7 version VH3SQVL3 (antibody)
heavy: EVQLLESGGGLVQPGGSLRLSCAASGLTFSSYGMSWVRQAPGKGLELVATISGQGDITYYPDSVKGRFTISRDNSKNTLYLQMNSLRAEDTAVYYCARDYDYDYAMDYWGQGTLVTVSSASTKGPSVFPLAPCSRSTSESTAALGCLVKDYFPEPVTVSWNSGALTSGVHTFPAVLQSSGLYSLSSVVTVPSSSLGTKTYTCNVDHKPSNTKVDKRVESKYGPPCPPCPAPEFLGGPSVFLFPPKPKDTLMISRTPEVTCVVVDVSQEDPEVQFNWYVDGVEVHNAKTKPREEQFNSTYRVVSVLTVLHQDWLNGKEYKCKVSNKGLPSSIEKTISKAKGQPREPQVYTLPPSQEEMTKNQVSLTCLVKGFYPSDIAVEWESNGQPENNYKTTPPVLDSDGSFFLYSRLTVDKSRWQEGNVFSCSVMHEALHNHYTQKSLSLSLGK
light: B5 light
notes: Biotinylated in the Octet assay; also called Humanized VH3SQVL3
An IC50 [7] of about 0.9 µg/mL, an EC50 [8] of about 0.6 µg/mL and an IC50 [9] of about 0.6 µg/mL were found for B6 in this work. For the same binder, the Kd [10] was 0.82 nM, the koff [10] was 0.000941 s⁻¹ and the kon [10] was 1.15e+06 M⁻¹ s⁻¹. For the same binder, the EC50 [11] was about 0.01 µg/mL.

B7: 'CDR2 deamidation-repaired' humanized IgG4/kappa anti-human CD89 monoclonal antibody 10E7 version VH3STVL3 (antibody)
heavy: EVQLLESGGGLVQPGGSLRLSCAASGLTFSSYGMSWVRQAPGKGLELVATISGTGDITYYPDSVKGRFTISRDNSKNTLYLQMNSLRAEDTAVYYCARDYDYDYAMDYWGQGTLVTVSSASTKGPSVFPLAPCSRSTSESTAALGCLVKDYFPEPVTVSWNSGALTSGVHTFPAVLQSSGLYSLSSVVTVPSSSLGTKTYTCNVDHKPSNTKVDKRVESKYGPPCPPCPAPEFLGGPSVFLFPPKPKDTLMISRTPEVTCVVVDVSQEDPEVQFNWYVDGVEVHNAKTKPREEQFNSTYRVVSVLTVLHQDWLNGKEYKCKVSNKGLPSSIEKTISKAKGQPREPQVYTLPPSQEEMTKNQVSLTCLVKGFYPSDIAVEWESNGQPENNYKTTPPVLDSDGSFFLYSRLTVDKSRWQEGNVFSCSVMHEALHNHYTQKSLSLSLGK
light: B5 light
notes: Biotinylated in the Octet assay; also called Humanized VH3STVL3
An IC50 [7] of about 0.9 µg/mL, an EC50 [8] of about 0.6 µg/mL and an IC50 [9] of about 0.6 µg/mL were found for B7 in this work. The Kd [10] was 0.92 nM, the koff [10] was 0.000974 s⁻¹ and the kon [10] was 1.06e+06 M⁻¹ s⁻¹. It also gave an EC50 [11] of about 0.01 µg/mL.

B8: humanized IgG4/kappa anti-human CD89 monoclonal antibody 10E7 version VH2VL4 (antibody)
heavy: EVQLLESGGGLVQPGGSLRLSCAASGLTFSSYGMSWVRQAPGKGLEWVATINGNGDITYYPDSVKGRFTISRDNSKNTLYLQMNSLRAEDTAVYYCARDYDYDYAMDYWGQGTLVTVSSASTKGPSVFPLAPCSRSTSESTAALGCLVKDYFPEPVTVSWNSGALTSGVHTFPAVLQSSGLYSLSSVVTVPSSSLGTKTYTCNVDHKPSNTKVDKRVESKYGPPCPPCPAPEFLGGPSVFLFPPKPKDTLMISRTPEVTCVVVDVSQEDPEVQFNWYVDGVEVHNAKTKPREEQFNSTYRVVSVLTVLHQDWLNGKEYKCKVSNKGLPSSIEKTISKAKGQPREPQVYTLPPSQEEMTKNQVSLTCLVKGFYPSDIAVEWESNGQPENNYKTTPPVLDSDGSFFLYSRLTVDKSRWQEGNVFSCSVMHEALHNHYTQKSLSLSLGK
light: B5 light with A43T, Y87F
notes: as for B5
With B8 the “EC50 (read off the curve)” value [12] was about 0.03 µg/mL.

B9: humanized IgG4/kappa anti-human CD89 monoclonal antibody 10E7 version VH1VL3 (antibody)
heavy: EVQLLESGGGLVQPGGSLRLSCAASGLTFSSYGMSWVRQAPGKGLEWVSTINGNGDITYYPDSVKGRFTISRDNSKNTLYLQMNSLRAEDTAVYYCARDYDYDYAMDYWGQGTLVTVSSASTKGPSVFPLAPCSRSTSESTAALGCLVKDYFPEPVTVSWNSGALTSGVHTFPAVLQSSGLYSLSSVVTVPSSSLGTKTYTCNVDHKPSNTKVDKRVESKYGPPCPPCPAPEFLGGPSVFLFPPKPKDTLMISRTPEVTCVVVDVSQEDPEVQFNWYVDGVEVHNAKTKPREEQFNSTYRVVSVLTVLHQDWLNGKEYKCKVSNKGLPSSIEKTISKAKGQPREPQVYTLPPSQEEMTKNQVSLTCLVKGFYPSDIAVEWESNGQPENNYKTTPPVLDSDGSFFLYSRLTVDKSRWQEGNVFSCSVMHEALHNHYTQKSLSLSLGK
light: B5 light
notes: as for B5
With B9 the “EC50 (read off the curve)” value [6] was about 0.03 µg/mL.

B10: humanized IgG4/kappa anti-human CD89 monoclonal antibody 10E7 version VH1VL4 (antibody)
heavy: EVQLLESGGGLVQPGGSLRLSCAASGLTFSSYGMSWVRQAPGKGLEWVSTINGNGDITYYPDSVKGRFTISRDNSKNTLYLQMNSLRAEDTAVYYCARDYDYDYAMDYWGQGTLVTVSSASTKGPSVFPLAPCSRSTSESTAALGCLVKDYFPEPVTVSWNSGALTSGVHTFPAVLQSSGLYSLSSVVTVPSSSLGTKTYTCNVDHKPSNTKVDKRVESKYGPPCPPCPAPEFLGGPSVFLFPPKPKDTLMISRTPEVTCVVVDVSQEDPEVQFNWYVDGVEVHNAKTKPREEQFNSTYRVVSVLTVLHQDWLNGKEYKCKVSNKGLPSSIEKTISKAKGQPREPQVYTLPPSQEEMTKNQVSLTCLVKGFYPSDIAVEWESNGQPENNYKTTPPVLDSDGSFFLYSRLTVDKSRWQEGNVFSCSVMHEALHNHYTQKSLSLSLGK
light: B5 light with A43T, Y87F
notes: as for B5
B10 was tested, and the “EC50 (read off the curve)” value [12] was about 0.03 µg/mL.

B11: CD89/IgA blocking chimeric mouse/human IgG4/kappa anti-human CD89 antibody 10E7 (antibody)
heavy: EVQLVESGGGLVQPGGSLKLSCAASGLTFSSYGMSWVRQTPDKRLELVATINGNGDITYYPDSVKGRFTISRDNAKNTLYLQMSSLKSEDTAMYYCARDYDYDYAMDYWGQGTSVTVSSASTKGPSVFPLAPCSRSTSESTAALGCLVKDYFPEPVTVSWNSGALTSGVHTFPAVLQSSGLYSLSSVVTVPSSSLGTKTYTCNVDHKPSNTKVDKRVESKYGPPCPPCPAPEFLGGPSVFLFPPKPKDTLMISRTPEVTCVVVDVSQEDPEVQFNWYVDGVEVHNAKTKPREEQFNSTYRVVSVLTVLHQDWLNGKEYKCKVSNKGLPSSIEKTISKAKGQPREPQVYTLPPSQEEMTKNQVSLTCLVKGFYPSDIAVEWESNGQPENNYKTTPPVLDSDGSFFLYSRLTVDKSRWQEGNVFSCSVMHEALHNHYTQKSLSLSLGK
light: DIQMTQSTSSLSASLGDSVTISCRASQDIINYLNWYQQKPDGTVKLLIYYTSRLHSGVPSRFSGSGSGTEYSLTVSNLEKEDIATYFCQQGKTLPYTFGGGTKLEIKRTVAAPSVFIFPPSDEQLKSGTASVVCLLNNFYPREAKVQWKVDNALQSGNSQESVTEQDSKDSTYSLSSTLTLSKADYEKHKVYACEVTHQGLSSPVTKSFNRGEC
notes: stabilized (S239P) human IgG4; biotinylated in the Octet assay; also called chimeric 10E7; chimer IgG4/k 10E7
With B11 the EC50 [4] was 0.016 µg/mL and ~0.02 µg/mL, the IC50 [7] was about 1.6 µg/mL and the EC50 [8] was about 1.3 µg/mL. For the same binder, the IC50 [9] was about 1 µg/mL, the Kd [10] was 1.28 nM and the koff [10] was 0.00106 s⁻¹. For the same binder, the kon [10] was 832000 M⁻¹ s⁻¹, the EC50 [11] was about 0.01 µg/mL and the EC50 [5] was 1.25 µg/mL and ~1 µg/mL.

From patent US20230242646A1 (JJP BIOLOGICS SP Z O O, published 2023)
